Positions count from the first letter of the chain named. Numbers in names are those of the source.
B1: MTSP-1 Q38H/I41S/D60bT/F60eS/Y60gW/ins97aV/F97D/T98P/F99L/C122S/G151H/Q175L/Q192D (enzyme)
chain: VVGGTDADEGEWPWQVSLHALGHGHSCGASLISPNWLVSAAHCYIDTRGSRWSDPTQWTAFLGLHDQSQRSAPGVQERRLKRIISHPFFNDDVPLDYDIALLELEKPAEYSSMVRPISLPDASHVFPAGKAIWVTGWGHTQYGGTHALILQKGEIRVINQTTCENLLPQLITPRMMCVGFLSGGVDSCDGDSGGPLSSVEADGRIFQAGVVSWGDGCAQRNKPGVYTRLPLFRDWIKENTGV
B2: MTSP-1 Q38S/I41S/F60eR/F97T/ins97aE/T98G/F99L/C122S/G151N/Q175L/Q192S (enzyme)
chain: B1 chain with H23S, T47D, S50R, W52Y, D92T, V93E, P94G, H146N, D189S
B3: MTSP-1 Q38E/I41V/D60bF/F60eK/Y60gF/F97T/ins97aE/T98G/F99L/C122S/Q175L/Q192G (enzyme)
chain: B1 chain with H23E, S26V, T47F, S50K, W52F, D92T, V93E, P94G, H146G, D189G
B4: MTSP-1 Q38H2I/I41S/F97T/ins97aE/T98G/F99L/C122S/Q175L/Q192V (enzyme)
chain: B1 chain with H23K, T47D, S50F, W52Y, D92T, V93E, P94G, H146G, D189V
B5: MTSP-1 Q38H/I41A/D60bT/F60eK/ins97aE/F97T/T98G/F99L/C122S/Q175L/Q192E (enzyme)
chain: B1 chain with S26A, S50K, W52Y, D92T, V93E, P94G, H146G, D189E
B6: MTSP-1 Q38L/I41A/D60bH/F60eT/ins97aV/F97D/T98P/F99L/C122S/G151Q/Q175A/Q192G (enzyme)
chain: B1 chain with H23L, S26A, T47H, S50T, W52Y, H146Q, L170A, D189G
B7: MTSP-1 Q38L/I41T/D60bV/F60eH/Y60gL/ins97aE/F97T/T98G/F99L/C122S/Q175L/Q192S (enzyme)
chain: B1 chain with H23L, S26T, T47V, S50H, W52L, D92T, V93E, P94G, H146G, D189S
B8: MTSP-1 Q38H/I41A/D60bV/F60eA/Y60gW/F97T/ins97aE/T98G/F99L/C122S/Q175L/Q192V (enzyme)
chain: B1 chain with S26A, T47V, S50A, D92T, V93E, P94G, H146G, D189V
B9: MTSP-1 Q38F/I41S/D60bF/F60eR/Y60gF/F97T/ins97aE/T98G/F99L/C122S/G151N/Q175L/Q192V (enzyme)
chain: B1 chain with H23F, T47F, S50R, W52F, D92T, V93E, P94G, H146N, D189V
B10: MTSP-1 Q38H/I41S/D60bT/F60eS/F97D/ins97aV/T98P/F99L/C122S/G151H/Q175L/Q192D (enzyme)
chain: B1 chain with W52Y
B11: MTSP-1 Q38H/I41A/D60bT/F60eH/Y60gW/F97T/ins97aE/T98G/F99L/C122S/G151N/Q175L/Q192D (enzyme)
chain: B1 chain with S26A, S50H, D92T, V93E, P94G, H146N
B12: MTSP-1 I41T/D60bY/F97T/ins97aE/T98G/F99L/C122S/Q175L/Q192G (enzyme)
chain: B1 chain with H23Q, S26T, T47Y, S50F, W52Y, D92T, V93E, P94G, H146G, D189G
B13: MTSP-1 Q38W/I41A/ins97aV/F97D/T98P/F99L/C122S/G151T/Q175S/Q192D (enzyme)
chain: B1 chain with H23W, S26A, T47D, S50F, W52Y, H146T, L170S
B14: MTSP-1 Q38H/I41A/D60bT/F60eR/F97T/ins97aE/T98G/F99L/C122S/Q175L/Q192V (enzyme)
chain: B1 chain with S26A, S50R, W52Y, D92T, V93E, P94G, H146G, D189V
B15: MTSP-1 Q38E/I41S/D60bV/F60eK/Y60gW/F97T/ins97aE/T98G/F99L/C122S/G151N/Q175L/Q192D (enzyme)
chain: B1 chain with H23E, T47V, S50K, D92T, V93E, P94G, H146N
B16: MTSP-1 Q38R/I41T/ins97aE/F97T/T98G/F99L/C122S/G151N/Q175L/Q192G (enzyme)
chain: B1 chain with H23R, S26T, T47D, S50F, W52Y, D92T, V93E, P94G, H146N, D189G
B17: MTSP-1 Q38H/I41S/D60bS/F60eR/Y60gW/F97T/ins97aE/T98G/F99L/C122S/Q175L/Q192E (enzyme)
chain: B1 chain with T47S, S50R, D92T, V93E, P94G, H146G, D189E
B18: MTSP-1 Q38H/I41A/D60bK/F60eK/Y60gW/F97T/ins97aE/T98G/F99L/C122S/Q175L/Q192D (enzyme)
chain: B1 chain with S26A, T47K, S50K, D92T, V93E, P94G, H146G
B19: MTSP-1 D60bY/F97T/ins97aE/T98G/F99L/C122S/Q175L/Q192G (enzyme)
chain: B1 chain with H23Q, S26I, T47Y, S50F, W52Y, D92T, V93E, P94G, H146G, D189G
B20: MTSP-1 Q38F/I41A/D60bT/F60eG/Y60gW/ins97aE/F97T/T98G/F99L/C122S/Q175L/Q192E (enzyme)
chain: B1 chain with H23F, S26A, S50G, D92T, V93E, P94G, H146G, D189E
B21: MTSP-1 Q38W/I41S/D60bG/F60eI/F97D/ins97aV/T98P/F99L/C122S/G151N/Q175A/Q192D (enzyme)
chain: B1 chain with H23W, T47G, S50I, W52Y, H146N, L170A
B22: MTSP-1 Q38E/I41S/D60bT/F60eR/F97T/ins97aE/T98G/F99L/C122S/Q175L/Q192V (enzyme)
chain: B1 chain with H23E, S50R, W52Y, D92T, V93E, P94G, H146G, D189V
B23: MTSP-1 Q38V/I41S/D60bT/F60eT/F97D/ins97aV/T98P/F99L/C122S/G151N/Q175H/Q192S (enzyme)
chain: B1 chain with H23V, S50T, W52Y, H146N, L170H, D189S
B24: MTSP-1 Q38T/I41S/D60bG/F60eM/ins97aV/F97D/T98P/F99L/C122S/G151N/Q175S/Q192S (enzyme)
chain: B1 chain with H23T, T47G, S50M, W52Y, H146N, L170S, D189S
B25: MTSP-1 Q38T/I41S/D60bV/F60eR/ins97aV/F97D/T98P/F99L/C122S/G151N/Q175R/Q192V (enzyme)
chain: B1 chain with H23T, T47V, S50R, W52Y, H146N, L170R, D189V
B26: MTSP-1 Q38L/I41T/D60bA/F60eL/ins97aV/F97D/T98P/F99L/C122S/G151H/Q175M/Q192T (enzyme)
chain: B1 chain with H23L, S26T, T47A, S50L, W52Y, L170M, D189T
B27: MTSP-1 Q38D/I41S/D60bT/F60eR/ins97aV/F97D/T98P/F99L/C122S/G151K/Q175S/Q192V (enzyme)
chain: B1 chain with H23D, S50R, W52Y, H146K, L170S, D189V
B28: MTSP-1 Q38R/I41S/D60bY/F60eD/ins97aV/F97D/T98P/F99L/C122S/G151N/Q175M/Q192A (enzyme)
chain: B1 chain with H23R, T47Y, S50D, W52Y, H146N, L170M, D189A

Each binder was assayed against plasma purified human complement protein C3 (human) (UniProt P01024) (assay: cell-based or functional assay).
plasma purified human complement protein C3 (human), sequence (P01024 23-667, chain 1 of 2): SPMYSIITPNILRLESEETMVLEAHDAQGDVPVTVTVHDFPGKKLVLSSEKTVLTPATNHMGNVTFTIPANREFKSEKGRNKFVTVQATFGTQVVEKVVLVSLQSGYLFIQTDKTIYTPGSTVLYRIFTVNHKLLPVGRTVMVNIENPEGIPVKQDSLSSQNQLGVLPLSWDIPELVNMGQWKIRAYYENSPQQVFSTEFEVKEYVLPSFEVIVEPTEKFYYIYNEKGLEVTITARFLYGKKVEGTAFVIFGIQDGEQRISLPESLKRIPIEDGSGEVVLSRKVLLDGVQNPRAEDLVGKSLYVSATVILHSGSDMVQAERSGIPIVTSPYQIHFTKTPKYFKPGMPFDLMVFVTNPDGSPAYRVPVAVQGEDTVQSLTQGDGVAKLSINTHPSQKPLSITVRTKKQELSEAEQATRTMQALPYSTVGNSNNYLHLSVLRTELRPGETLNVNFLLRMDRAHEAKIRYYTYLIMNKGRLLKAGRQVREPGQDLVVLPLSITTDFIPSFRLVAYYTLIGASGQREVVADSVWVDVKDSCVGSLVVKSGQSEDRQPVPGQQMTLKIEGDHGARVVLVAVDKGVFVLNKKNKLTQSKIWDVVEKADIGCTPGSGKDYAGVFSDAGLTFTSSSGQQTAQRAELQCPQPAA
plasma purified human complement protein C3 (human), sequence (P01024 672-1663, chain 2 of 2): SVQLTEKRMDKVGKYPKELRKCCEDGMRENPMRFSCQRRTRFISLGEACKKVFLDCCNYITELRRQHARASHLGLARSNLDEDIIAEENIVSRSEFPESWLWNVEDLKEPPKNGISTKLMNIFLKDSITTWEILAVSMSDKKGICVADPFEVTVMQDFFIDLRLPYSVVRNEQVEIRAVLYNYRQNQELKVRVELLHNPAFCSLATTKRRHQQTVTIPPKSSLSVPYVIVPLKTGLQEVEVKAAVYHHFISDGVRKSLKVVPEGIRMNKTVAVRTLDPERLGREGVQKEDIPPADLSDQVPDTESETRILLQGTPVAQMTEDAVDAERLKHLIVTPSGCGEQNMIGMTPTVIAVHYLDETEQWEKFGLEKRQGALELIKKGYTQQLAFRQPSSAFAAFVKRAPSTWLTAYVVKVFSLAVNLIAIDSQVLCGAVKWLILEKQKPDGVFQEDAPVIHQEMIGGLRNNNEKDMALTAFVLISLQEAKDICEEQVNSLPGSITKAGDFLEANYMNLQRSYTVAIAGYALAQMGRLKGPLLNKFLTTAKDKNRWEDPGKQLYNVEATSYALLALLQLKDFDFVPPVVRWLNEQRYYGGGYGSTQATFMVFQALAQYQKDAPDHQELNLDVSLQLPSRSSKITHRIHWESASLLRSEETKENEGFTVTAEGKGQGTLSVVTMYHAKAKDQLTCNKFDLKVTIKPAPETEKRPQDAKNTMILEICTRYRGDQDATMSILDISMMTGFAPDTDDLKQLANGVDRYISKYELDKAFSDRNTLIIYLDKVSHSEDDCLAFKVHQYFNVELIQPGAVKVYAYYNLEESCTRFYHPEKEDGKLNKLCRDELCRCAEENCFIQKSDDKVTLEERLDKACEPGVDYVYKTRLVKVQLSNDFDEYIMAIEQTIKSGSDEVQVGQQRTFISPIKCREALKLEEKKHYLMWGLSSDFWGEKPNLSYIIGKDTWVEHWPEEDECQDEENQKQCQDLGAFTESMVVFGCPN

| Binder | EC50 of hC3 cleavage [nM] |
| --- | --- |
| B1 | 12.6 |
| B2 | 6.26 |
| B3 | 14.2 |
| B4 | 43 |
| B5 | 14.6 |
| B6 | 5.73 |
| B7 | 13.1 |
| B8 | 1.57 |
| B9 | 1.96 |
| B10 | 45.4 |
| B11 | 6.95 |
| B12 | 3.88 |
| B13 | 68 |
| B14 | 6.54 |
| B15 | 12.1 |
| B16 | 30.6 |
| B17 | 8.35 |
| B18 | 22.3 |
| B19 | 4.1 |
| B20 | 1.25 |
| B21 | 43.1 |
| B22 | 32.7 |
| B23 | 18.5 |
| B24 | 28.8 |
| B25 | 15.7 |
| B26 | 20.2 |
| B27 | 48.1 |
| B28 | 3.22 |
